This passage reports Kd results from article doi:10.1101/2021.10.28.465226.

In the assay the target is SARS-CoV-2 spike heptad repeat 1 (HR1) with C-terminal poly-his tag (SARS-CoV-2). As to the kind of experiment: SPR.

By pKd is commonly meant −log10 of the Kd, conventionally taken in molar units. The low end stands for a large Kd, the high end for a small Kd.

pKd: −log10 of the molar value.

In turn, “SARS-CoV-2 spike heptad repeat 2 (HR2) peptide” had a pKd of 8.65.
